Data set [1] concerns the target T1, MutSβ WT, MSH3 subunit;MutSβ, MSH2 subunit (human;human?, UniProt P20585;P43246 1-1137;1-934, |). The data set is described as follows: pull-down.
The target of data set [2] is T1, MutSβ WT, MSH3 subunit;MutSβ, MSH2 …. The data set is described as follows: EMSA. On the technique in general: In EMSA bound probe runs differently from free probe, usually more slowly.
Data set [3] addresses MutLβ (MLH1-PMS1 heterodimer) carrying a 6xHis tag on the PMS1 subunit (human, UniProt P40692;P54277). The data set is described as follows: pull-down.

B1: b66-G4 (structured_DNA)
DNA: TTTTTTTTTTTTTTTTTTTTTTTTTTTTTTTTTTTTTTTTTTTTTGGGTGGGTGGGTGGGTTTTTT
Turning to B1, in data set [1], the binding result is listed as “binds”.

Turning to AGGGGGGAGGGAGGGTGG (structured_DNA) [CEB1 G4], the binding result in data set [2] is listed as “binds”.

B2: Flag-tagged FANCJ (enzyme)
chain: MSSMWSEYTIGGVKIYFPYKAYPSQLAMMNSILRGLNSKQHCLLESPTGSGKSLALLCSALAWQQSLSGKPADEGVSEKAEVQLSCCCACHSKDFTNNDMNQGTSRHFNYPSTPPSERNGTSSTCQDSPEKTTLAAKLSAKKQASIYRDENDDFQVEKKRIRPLETTQQIRKRHCFGTEVHNLDAKVDSGKTVKLNSPLEKINSFSPQKPPGHCSRCCCSTKQGNSQESSNTIKKDHTGKSKIPKIYFGTRTHKQIAQITRELRRTAYSGVPMTILSSRDHTCVHPEVVGNFNRNEKCMELLDGKNGKSCYFYHGVHKISDQHTLQTFQGMCKAWDIEELVSLGKKLKACPYYTARELIQDADIIFCPYNYLLDAQIRESMDLNLKEQVVILDEAHNIEDCARESASYSVTEVQLRFARDELDSMVNNNIRKKDHEPLRAVCCSLINWLEANAEYLVERDYESACKIWSGNEMLLTLHKMGITTATFPILQGHFSAVLQKEEKISPIYGKEEAREVPVISASTQIMLKGLFMVLDYLFRQNSRFADDYKIAIQQTYSWTNQIDISDKNGLLVLPKNKKRSRQKTAVHVLNFWCLNPAVAFSDINGKVQTIVLTSGTLSPMKSFSSELGVTFTIQLEANHIIKNSQVWVGTIGSGPKGRNLCATFQNTETFEFQDEVGALLLSVCQTVSQGILCFLPSYKLLEKLKERWLSTGLWHNLELVKTVIVEPQGGEKTNFDELLQVYYDAIKYKGEKDGALLVAVCRGKVSEGLDFSDDNARAVITIGIPFPNVKDLQVELKRQYNDHHSKLRGLLPGRQWYEIQAYRALNQALGRCIRHRNDWGALILVDDRFRNNPSRYISGLSKWVRQQIQHHSTFESALESLAEFSKKHQKVLNVSIKDRTNIQDNESTLEVTSLKYSTSPYLLEAASHLSPENFVEDEAKICVQELQCPKIITKNSPLPSSIISRKEKNDPVFLEEAGKAEKIVISRSTSPTFNKQTKRVSWSSFNSLGQYFTGKIPKATPELGSSENSASSPPRFKTEKMESKTVLPFTDKCESSNLTVNTSFGSCPQSETIISSLKIDATLTRKNHSEHPLCSEEALDPDIELSLVSEEDKQSTSNRDFETEAEDESIYFTPELYDPEDTDEEKNDLAETDRGNRLANNSDCILAKDLFEIRTIKEVDSAREVKAEDCIDTKLNGILHIEESKIDDIDGNVKTTWINELELGKTHEIEIKNFKPSPSKNKGMFPGFK
Regarding B2, the binding result in data set [3] is listed as “binds”.

Values taken from article PMC10849593 (Science Advances, 2024).
